Assay results taken from article PMC5007439.

Biological target: T1, bacteriophage MS2 coat protein (bacteriophage MS2), P03612
T1 chain: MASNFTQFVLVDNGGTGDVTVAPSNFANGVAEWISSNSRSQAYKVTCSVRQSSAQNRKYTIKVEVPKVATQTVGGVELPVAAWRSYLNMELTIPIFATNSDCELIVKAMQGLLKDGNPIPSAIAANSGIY
Test: cryo-EM structure; single particle cryo-EM of purified MS2 virions (coat protein, A-protein and RNA genome); icosahedral reconstruction at 4.1 Å and asymmetric reconstruction at 8.7 Å
Details: remark: other sources report otherwise

B1: bacteriophage MS2 coat protein, P03612 1-130 (natural protein)
chain: T1 chain
  stoichiometry N: 178 copies
